PMC2976847 (Frontiers in bioscience : a journal and virtual library, 2008)
Values joined by “and” are separate entries in the source; they are usually repeats but may differ in a detail not shown here. Identical values can stand only once.

Molecular target: the molecule itself
Test: native gel or EMSA

B1: Stat5a (wild type), from Epo-stimulated 293T cells (natural protein)
chain: MAGWIQAQQLQGDALRQMQVLYGQHFPIEVRHYLAQWIESQPWDAIDLDNPQDRGQATQLLEGLVQELQKKAEHQVGEDGFLLKIKLGHYATQLQNTYDRCPMELVRCIRHILYNEQRLVREANNCSSPAGVLVDAMSQKHLQINQRFEELRLITQDTENELKKLQQTQEYFIIQYQESLRIQAQFAQLGQLNPQERMSRETALQQKQVSLETWLQREAQTLQQYRVELAEKHQKTLQLLRKQQTIILDDELIQWKRRQQLAGNGGPPEGSLDVLQSWCEKLAEIIWQNRQQIRRAEHLCQQLPIPGPVEEMLAEVNATITDIISALVTSTFIIEKQPPQVLKTQTKFAATVRLLVGGKLNVHMNPPQVKATIISEQQAKSLLKNENTRNECSGEILNNCCVMEYHQATGTLSAHFRNMSLKRIKRADRRGAESVTEEKFTVLFESQFSVGSNELVFQVKTLSLPVVVIVHGSQDHNATATVLWDNAFAEPGRVPFAVPDKVLWPQLCEALNMKFKAEVQSNRGLTKENLVFLAQKLFNISSNHLEDYNSMSVSWSQFNRENLPGWNYTFWQWFDGVMEVLKKHHKPHWNDGAILGFVNKQQAHDLLINKPDGTFLLRFSDSEIGGITIAWKFDSPDRNLWNLKPFTTRDFSIRSLADRLGDLNYLIYVFPDRPKDEVFAKYYTPVLAKAVDGYVKPQIKQVVPEFVNASTDAGASATYMDQAPSPVVCPQPHYNMYPPNPDPVLDQDGEFDLDESMDVARHVEELLRRPMDSLDARLSPPAGLFTSARSSLS
- stoichiometry N: 4 and 2
